# Patent US20260070961A1 (Takeda / Millennium, published 2026)
# B1: DENV3-8D4 (antibody, V domains shown)
# VH: QEQLEESGGGLVKPGGTLTLTCTASGFSFSNVYYICWVRQAPGKGLEWIGCIGTGDGNTWYASWAKGRFTISKASSTTVILQVTSLTAADTATYFCARDIYSYDNTGVYTVPKLWGPGTLVTVSS
# VL: AAVLTQTPSPVSAAVGGTVSISCQSSESVYSNNRLAWYQQKPGQPPKLLIYRASTLESGVPSRFKGSGSGTEFTLTISDVRCDDAATYYCAGGYSGSSDKGFGGGTEVVVK
# B2: DENV3-5D7 (antibody, V domains shown)
# VH: QSLEESGGDLVKPGASLTLTCTASGFSFSSGYDMCWVRQAPGKGLEWIACIYITDTGSSYYATWARGRFTISKTSSTSVTLQVTSLTAADTATYFCAKTNYGSGGFAFNLWGPGTLVTVSS
# VL: DVVMTQTPASVEARVGGTVTINCQASQSISNLLAWYQQKPGQPPKLLIYRASALESGVPSRFRGSGSGTEFTLTISDLECADAATYYCQCTYGGSSITNWAFGGGTEVVVK
# notes: also called clone 5D7
# B3: DENV3-12H6 (antibody, V domains shown)
# VH: QEQLEESGGDLVKPEGSLTLTCKASGIDFSSSYWICWVRQAPGKGLEWIGCIYTGSSTTWYAAWAKGRFTISKPSSTTVTLQMTSLTAADTATYFCARFYDVGVYFNLWGPGTLVTVSS
# VL: AIVMTQTPSSKSVPVGDTVTINCQASESISSWLAWYQQKPGQPPKLLIYLASTLASGVPSRFKGSGSGTQFTLTISDVVCDDAATYYCAGYKSSVTDGFAFGGGTEVVVK
# Target: T1, DENV-3 VLP (Dengue virus serotype 3)
# T1 construct: also called dengue 3 VLP; DENV-VLP
# Assay: BLI (Octet-HTX), IgG from supernatant captured on Protein A biosensor, 5 ug/mL DENV-VLP, 1:1 model
row,Binder,koff [s⁻¹]
1,B1,< 2e-05
2,B2,< 2e-05
3,B3,< 2e-05

# Target: T2, DENV3 Domain III protein (Dengue virus serotype 3)
# T2 construct: domain: Domain III; also called TDV3 Domain III
# Assay: BLI (Octet HTX), mAb coupled to AR2G biosensor, 20 ug/mL Domain III protein, response at 1200 sec
row,Binder,Response (nm)
1,B1,0.248
2,B2,0.0178
3,B3,0.0148

# Target: T1, DENV-3 VLP
# Assay: Luminex assay, VLP-conjugated MagPlex beads
row,Binder,EC50 [µg/mL]
1,B1,0.115
2,B2,0.025
3,B3,0.11

# Target: T1, DENV-3 VLP
# Assay: BLI (Octet-HTX), IgG from supernatant captured on Protein A biosensor, 5 ug/mL DENV-VLP
row,Binder,response
1,B1,1.51
2,B2,0.984
3,B3,1.39
